Read-outs that look alike come from different tables or passages of the source.
B1: Llama single domain anti-IL13Rα2 Clone 1 (LSD1) (VHH)
VHH: DVQLVESGGGLVQPGGSLRLSCAASGFTSDYYIIGWFRQAPGKEREGVSCISSKYANTNYADSVKGRFTQSRGAAKNTVYLQMNALKPEDTAVYYCAADTRRYTCPDIATMHRNFDSWGQGTQVTVSS
notes: Captured on a Ni-NTA sensor in the Octet assay, so a His tag is implied; the tag is not described for this construct; also called parental; clone 1 parental
B2: single domain anti-MUC16 binder R3MU4 (VHH)
VHH: QVQLQESGGGLVQAGGSLRLSCAASGRTVSSLFMGWFRQAPGKERELVAAISRYSLYTYYADSVKGRFTISADNAKNAVYLQMNSLKPEDTAVYYCASKLEYTSNDYDSWGQGTQVTVSS
notes: also called Parental R3Mu4; parental (llama) R3Mu4; not shown: C-terminal tags (pMECS GG: HA tag and His6 tag; His-tagged in the Octet assay)
B3: R3MU29h13 (96.7% human) (VHH)
VHH: EVQLVESGGGLVQPGGSLRLSCAASGRAVSSLFMGWFRQAPGKGLELVSAISRYSLYTYYADSVKGRFTISRDNAKNTLYLQMNSLRPEDTAVYYCASKLEYTSNDYDSWGQGTLVTVSS
notes: also called R3Mu29_h13#11; not shown: His tag (His-tagged MUC16 sdAbs)
B4: Single domain anti-MUC16 R3MU29 (VHH)
VHH: QVQLQESGGGLVQAGDSLRLSCAASGRAVSSLFMGWFRRAPGKERELVAAISRYSLYTYYADSVKGRFTISADNAKNAVYLQMNSLKPEDTAVYYCASKLEYTSNDYDSWGQGTQVTVSS
notes: also called Parental R3Mu29; parental (llama) R3Mu29; not shown: C-terminal tags (pMECS GG: HA tag and His6 tag; His-tagged in the Octet assay)
B5: R3MU4h12 (97.8% human) (VHH)
VHH: EVQLVESGGGLVQPGGSLRLSCAASGRTVSSLFMGWFRQAPGKGLEWVSAISRYSLYTYYADSVKGRFTISRDNAKNTLYLQMNSLRPEDTAVYYCASKLEYTSNDYDSWGQGTLVTVSS
notes: also called R3Mu4 h12#2; not shown: His tag (His-tagged MUC16 sdAbs)
B6: R3MU4h11 (96.7% human) (VHH)
VHH: EVQLVESGGGLVQPGGSLRLSCAASGRTVSSLFMGWFRQAPGKGLELVSAISRYSLYTYYADSVKGRFTISRDNAKNTLYLQMNSLRPEDTAVYYCASKLEYTSNDYDSWGQGTLVTVSS
notes: also called R3Mu4 h11#2; not shown: His tag (His-tagged MUC16 sdAbs)
B7: Llama single domain anti-IL13Rα2 Clone 2 (LSD2) (VHH)
VHH: DVQLVESGGGLVQPGGSLRLSCEASGFASDDYIIGWFRQAPGKEREGVSCISSRYANTVYTDSVKGRFRISRGTAKNTVYLQMSALKPEDTAVYYCAMDSRRVTCPEISTMHRNFDSWGQGTQVTVSS
notes: Captured on a Ni-NTA sensor, so a His tag is implied; the tag is not described; also called 2-parental; clone 2 parental
B8: anti-IL13Rα2 Clone 2 humanized variant 2-h1 (VHH)
VHH: EVQLVESGGGLVQPGGSLRLSCAASGFASDDYIMGWFRQAPGKGLEGVSCISSRYANTVYADSVKGRFRISRGNAKNTVYLQMSALRPEDTAVYYCAMDSRRVTCPEISTMHRNFDSWGQGTQVTVSS
B9: anti-IL13Rα2 Clone 2 humanized variant 2-h4 (VHH)
VHH: EVQLVESGGGLVQPGGSLRLSCAASGFASDDYIMGWFRQAPGKGLEGVSCISSRYANTVYADSVKGRFTISRGNAKNTVYLQMNSLRPEDTAVYYCAMDSRRVTCPEISTMHRNFDSWGQGTQVTVSS
B10: anti-IL13Rα2 Clone 2 humanized variant 2-h5 (VHH)
VHH: EVQLVESGGGLVQPGGSLRLSCAASGFASDDYIMGWFRQAPGKGLEGVSCISSRYANTVYADSVKGRFTISRDNAKNTVYLQMNSLRPEDTAVYYCAMDSRRVTCPEISTMHRNFDSWGQGTQVTVSS
B11: anti-IL13Rα2 Clone 2 humanized variant 2-h3 (VHH)
VHH: EVQLVESGGGLVQPGGSLRLSCAASGFASDDYIMGWFRQAPGKGLEGVSCISSRYANTVYADSVKGRFTISRGNAKNTVYLQMSSLRPEDTAVYYCAMDSRRVTCPEISTMHRNFDSWGQGTQVTVSS
B12: anti-IL13Rα2 Clone 2 humanized variant 2-h6 (VHH)
VHH: EVQLVESGGGLVQPGGSLRLSCAASGFASDDYIMGWFRQAPGKGLEGVSCISSRYANTVYADSVKGRFTISRDNAKNTLYLQMNSLRPEDTAVYYCAMDSRRVTCPEISTMHRNFDSWGQGTQVTVSS
B13: Humanized Llama Single domain anti-IL13Rα2 Clone 2-h8 (H1-LSD2) (VHH)
VHH: EVQLVESGGGLVQPGGSLRLSCAASGFASDDYIMGWFRQAPGKGLEGVSCISSRYANTYYADSVKGRFTISRDNAKNTLYLQMNSLRPEDTAVYYCAMDSRRVTCPEISTMHRNFDSWGQGTLVTVSS
notes: Captured on a Ni-NTA sensor, so a His tag is implied; the tag is not described
B14: Humanized Llama single domain anti-IL13Rα2 Clone 2-h10 (H2-LSD2) (VHH)
VHH: EVQLVESGGGLVQPGGSLRLSCAASGFASDDYIMGWVRQAPGKGLEWVSCISSRYANTYYADSVKGRFTISRDNAKNTLYLQMNSLRPEDTAVYYCAMDSRRVTCPEISTMHRNFDSWGQGTLVTVSS
notes: as for B13
B15: Humanized Llama Single domain anti-IL13Rα2 Clone 1-h8 (H1-LSD1) (VHH)
VHH: EVQLVESGGGLVQPGGSLRLSCAASGFTSDYYIMGWFRQAPGKGLEGVSCISSKYANTYYADSVKGRFTISRDNAKNTLYLQMNSLRPEDTAVYYCAADTRRYTCPDIATMHRNFDSWGQGTLVTVSS
notes: as for B13
B16: R3MU4h13 (98.9% human) (VHH)
VHH: EVQLVESGGGLVQPGGSLRLSCAASGRTVSSLFMGWVRQAPGKGLEWVSAISRYSLYTYYADSVKGRFTISRDNAKNTLYLQMNSLRPEDTAVYYCASKLEYTSNDYDSWGQGTLVTVSS
notes: not shown: His tag (His-tagged MUC16 sdAbs)
B17: R3MU29h15 (98.9% human) (VHH)
VHH: EVQLVESGGGLVQPGGSLRLSCAASGRAVSSLFMGWVRQAPGKGLEWVSAISRYSLYTYYADSVKGRFTISRDNAKNTLYLQMNSLRPEDTAVYYCASKLEYTSNDYDSWGQGTLVTVSS
notes: also called R3Mu29_h15#16; not shown: His tag (His-tagged MUC16 sdAbs)
B18: R3MU29h14 (97.8% human) (VHH)
VHH: EVQLVESGGGLVQPGGSLRLSCAASGRAVSSLFMGWFRQAPGKGLEWVSAISRYSLYTYYADSVKGRFTISRDNAKNTLYLQMNSLRPEDTAVYYCASKLEYTSNDYDSWGQGTLVTVSS
notes: also called R3Mu29_h14#13; not shown: His tag (His-tagged MUC16 sdAbs)

What was measured:
[1] = target: T1, recombinant human IL13Rα2 fused to an Fc domain of human IgG1 (hIL13Rα2-Fc) (human, UniProt Q14627 27-343, limits assumed); assay: Octet KD relative to clone 1 parental
T1 construct: Bought construct (R&D Systems); The Fc can be removed by Factor Xa, so a Factor Xa site lies between the parts; not shown: Fc domain of human IgG1
T1 sequence (looked up): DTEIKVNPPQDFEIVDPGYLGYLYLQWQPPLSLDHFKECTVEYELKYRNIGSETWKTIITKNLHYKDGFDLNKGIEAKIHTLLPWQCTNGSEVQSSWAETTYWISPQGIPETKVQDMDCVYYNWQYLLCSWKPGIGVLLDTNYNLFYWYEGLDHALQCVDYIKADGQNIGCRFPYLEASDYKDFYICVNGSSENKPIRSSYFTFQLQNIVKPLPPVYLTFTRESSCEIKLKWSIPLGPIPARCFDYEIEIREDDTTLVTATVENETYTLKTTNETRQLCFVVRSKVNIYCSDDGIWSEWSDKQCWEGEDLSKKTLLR
Method: (§1) Two clones were chosen for humanization. […] Each humanized nanobody was analyzed by Octet at 500 nM on an Ni-NTA sensor, with three fold dilutions of antigen (IL13Rα2-Fc) at 125 nM, 41.66 nM, and 13.86 nM. A summary of the octed measurements for each of the humanized variants depicted in FIG. 1 is shown in Table 1 (clone 1) and Table 2 (clone 2).

human IL13Rα2 on cells [2] = target: T2, human IL13Rα2 on cells (human, UniProt Q14627 27-380); assay: flow cytometry; cell line not stated
T2 construct: whole, on cells; also called hIL13Rα2
T2 sequence (looked up): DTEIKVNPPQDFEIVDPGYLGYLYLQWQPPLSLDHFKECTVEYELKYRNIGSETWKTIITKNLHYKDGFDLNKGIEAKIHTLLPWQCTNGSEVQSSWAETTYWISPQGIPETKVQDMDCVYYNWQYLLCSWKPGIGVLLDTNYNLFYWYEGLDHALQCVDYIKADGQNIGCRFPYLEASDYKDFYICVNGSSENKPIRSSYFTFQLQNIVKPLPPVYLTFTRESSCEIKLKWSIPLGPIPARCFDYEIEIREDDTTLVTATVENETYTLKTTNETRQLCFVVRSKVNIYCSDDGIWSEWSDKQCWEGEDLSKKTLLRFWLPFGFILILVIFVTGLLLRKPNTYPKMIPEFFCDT

[3] = target: T1, recombinant human IL13Rα2 fused to an …; assay: Octet (BLI); nanobody on Ni-NTA sensor, IL13Rα2-Fc in solution
Method: as §1

[4] = target: T3, Human MUC16 polypeptide (MUC16 ectodomain peptide) (human); assay: Octet (BLI), NTA biosensor; His-tagged sdAb on sensor, MUC16 peptide titrated; 1:1 global fit
T3 construct: Analyte of the Octet titration and antigen of the binning assay; also called MUC16 peptide; MUC16^ecto peptide
T3 peptide: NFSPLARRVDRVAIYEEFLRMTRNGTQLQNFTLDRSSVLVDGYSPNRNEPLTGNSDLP
Method: FIGS. 5A-C show titration and measurement of binding affinity of parental (llama) and humanized anti-MUC16 single chain antibody (VHH). FIG. 5A is a diagram illustrating the experimental procedure by which the VHH binders produced in Example 5 are screened using an NTA biosensor (nickel coated surface). The His-tagged MUC16 sdAbs (3.25 μg/ml) are bound to the biosensor, and the MUC16 peptide is added at concentrations of 0, 1.56, 6.25, 25, 50, 100 or 200 nM. Buffer: 1× Octet; 1× Corning® Cellgro® PBS (cat. 21-040-CM) containing 0.02% Tween® 20 at 30° C. Sensors: Pall Forte Bio Dip & Read (cat. 18-5102). FIG. 5B (clone R3Mu4 parental and humanized variants) and FIG. 5C (clone R3Mu29 parental and humanized variants) show binding kinetics of the sdAbs to the MUC16 target (see also Table 1). These curves were used to derive binding affinity constant for each protein and to assess the effect of humanization on antigen binding.
The VHH binders produced in Example 5 are screened using an NTA biosensor (nickel column, see FIG. 5A for a drawing outlining the method). The His-tagged MUC16 sdAbs (3.25 μg/ml) are bound to the column, and then the MUC16 peptide is passed through the column at concentrations of 200, 100, 50, 25, 6.25, 1.56, and 0 nM. Buffer: 1× Corning® Cellgro® PBS pH 7.4 (cat. 21-040-CM) containing 0.02% Tween® 20) at 30° C. Sensors: Pall Forte Bio Dip & Read (cat. 18-5102).

[5] = target: T1, recombinant human IL13Rα2 fused to an …; assay: Octet KD relative to clone 2 parental
Method: as §1

human IL13Rα2 on cells [6] = target: T2, human IL13Rα2 on cells; assay: flow cytometry; cell line not stated; remark: listed apart in the source

Binder | Kd [3] | Kd [4] | KD fold difference [5] | Flow Cytometry MFI (human IL13Rα2 on cells [6]) | further results
B1 | 0.63 nM | – | – | – | KD fold difference [1]: 1 fold; Flow Cytometry MFI (human IL13Rα2 on cells [2]): 2270 MFI
B2 | – | 10.2 nM | – | – | –
B3 | – | 8.3 nM | – | – | –
B4 | – | 6.3 nM | – | – | –
B5 | – | 94.6 nM | – | – | –
B6 | – | 10.9 nM | – | – | –
B7 | 810 nM | – | 1 fold | 3650 MFI | –
B8 | 930 nM | – | 1.1 fold | – | –
B9 | 960 nM | – | 1.2 fold | 3060 MFI | –
B10 | 870 nM | – | 1.1 fold | 1450 MFI | –
B11 | 910 nM | – | 1.1 fold | 3070 MFI | –
B12 | 1130 nM | – | 1.4 fold | 2870 MFI | –
B13 | 950 nM | – | 1.2 fold | 2020 MFI | –
B14 | 3310 nM | – | 4.1 fold | 1120 MFI | –
B15 | 1.94 nM | – | – | – | KD fold difference [1]: 3.1 fold; Flow Cytometry MFI (human IL13Rα2 on cells [2]): 1240 MFI
B16 | – | 36.2 nM | – | – | –
B17 | – | 22.9 nM | – | – | –
B18 | – | 36.4 nM | – | – | –
